Ends that are not written are not given here. * marks the point of attachment. Biotin = O=C1N[C@H]2[C@H](CS[C@H]2CCCCC(=O)*)N1
Tests used:
LKB1 = biological target: T1, LKB1 (Homo sapiens, UniProt Q15831); test: in vitro kinase assay screen with LKB1 and candidate biosensor peptides (LC ESI-MS readout); format: biochemical; conditions: 15 nM kinase, 20 μM peptide, 100 μM ATP, 37° C., 3 hr reaction
T1 sequence (Q15831 1-433): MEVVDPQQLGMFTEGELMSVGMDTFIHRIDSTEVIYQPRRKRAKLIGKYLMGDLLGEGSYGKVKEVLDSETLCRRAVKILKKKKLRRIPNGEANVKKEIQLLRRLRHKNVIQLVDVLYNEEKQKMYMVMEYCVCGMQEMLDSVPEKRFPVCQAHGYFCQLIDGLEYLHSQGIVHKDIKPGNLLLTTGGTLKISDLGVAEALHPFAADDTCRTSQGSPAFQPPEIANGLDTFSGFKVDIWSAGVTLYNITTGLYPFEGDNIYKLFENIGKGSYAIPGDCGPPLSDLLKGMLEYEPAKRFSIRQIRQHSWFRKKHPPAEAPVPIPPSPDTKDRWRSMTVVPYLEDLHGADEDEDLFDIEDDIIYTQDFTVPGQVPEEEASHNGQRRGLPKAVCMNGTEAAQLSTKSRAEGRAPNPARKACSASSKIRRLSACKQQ
T1 sequence (Q7RTN6 1-431 partner): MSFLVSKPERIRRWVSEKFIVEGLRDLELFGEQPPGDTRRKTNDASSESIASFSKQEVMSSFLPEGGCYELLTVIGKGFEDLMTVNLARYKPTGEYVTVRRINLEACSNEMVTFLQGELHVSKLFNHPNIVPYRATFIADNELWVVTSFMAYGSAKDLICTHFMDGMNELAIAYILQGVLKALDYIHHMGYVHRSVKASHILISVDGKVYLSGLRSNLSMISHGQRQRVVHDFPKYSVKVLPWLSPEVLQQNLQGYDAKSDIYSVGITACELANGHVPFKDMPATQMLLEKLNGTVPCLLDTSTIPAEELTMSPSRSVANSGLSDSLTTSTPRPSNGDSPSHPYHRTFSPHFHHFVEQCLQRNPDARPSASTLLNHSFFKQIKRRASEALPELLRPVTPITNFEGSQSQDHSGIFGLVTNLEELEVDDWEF
T1 sequence (Q9Y376 1-341 partner): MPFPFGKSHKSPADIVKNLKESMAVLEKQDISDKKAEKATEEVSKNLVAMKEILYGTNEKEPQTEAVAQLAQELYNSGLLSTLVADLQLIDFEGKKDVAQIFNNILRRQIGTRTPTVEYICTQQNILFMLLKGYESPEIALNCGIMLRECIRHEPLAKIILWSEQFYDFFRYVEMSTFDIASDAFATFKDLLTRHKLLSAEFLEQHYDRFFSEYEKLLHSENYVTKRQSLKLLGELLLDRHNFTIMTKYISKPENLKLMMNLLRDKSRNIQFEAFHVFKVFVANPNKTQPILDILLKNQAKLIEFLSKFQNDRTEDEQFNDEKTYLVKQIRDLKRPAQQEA
Description: FIGS. 8A-B. FIG. 8A. Results from an initial kinase assay with LKB1 testing candidate biosensor peptide substrate WHLQTWCGYGGKbiotinGG (SEQ ID NO:12). The data shown is the abundance of the peptide and its phosphorylated version (SEQ ID NO:14) after incubation with the kinase for 3 hr. FIG. 8B. Zoomed in version of the spectrum showing relative abundance.
The in vitro kinase assay screen was performed with LKB1 and the candidate biosensor sequence (WHLQTWCGYGGKbiotinGG (SEQ ID NO:12)). First the kinase, (15 nM final concentration), was pre-incubated in kinase reaction buffer (10 mM HEPES, 10 mM MgCl2, 0.125 ng/μL BSA, 100 μM adenosine triphosphate (ATP), pH 7.5) for 15 minutes. Then the substrate peptide, (20 μM final concentration), was added and the reaction was kept at 37° C. The reaction was quenched with 6 M urea and then the sample was desalted with C18 zip tips according to the manufacturer's protocol and analyzed on an Agilent 1200 series LC and Agilent 6130 quadrupole ESI-MS.

Akt = Akt (Homo sapiens, UniProt P31749); test: in vitro time-course kinase assay with Akt and Aktide biosensor (MALDI/TOF/TOF-MS readout); format: biochemical; conditions: 15 nM kinase, 20 μM peptide, 100 μM ATP, 37° C., time points 0, 30, 60, 120 min; result after 2 hr
Description: FIG. 7. […] The abundance of the biosensor (labeled “Aktide”) and its phosphorylated version (labeled “phospho Aktide”) are shown over four different time points (0, 30, 60, 120 min) which represent the amount of time the peptide was incubated with the kinase.
The in vitro kinase assay was performed with Akt and Aktide biosensor (RRRRRSVDSHGGKbiotinGG (SEQ ID NO:11)). First, the kinase (15 nM final concentration) was pre-incubated in kinase reaction buffer (10 mM HEPES, 10 mM MgCl2, 0.125 ng/μL BSA, 100 μM adenosine triphosphate (ATP), pH 7.5) for 15 minutes. Then the substrate peptide, Aktide (20 μM final concentration), was added and the reaction was kept at 37° C. The reaction was monitored at different time points by removing 20 μL aliquots and quenching with 10 μL of 6 M urea at 0, 30, 60, and 120 minutes. The samples were then desalted with C18 zip tips according to the manufacturer's protocol and analyzed on an Applied Biosystems-Sciex 5800 MALDI/TOF/TOF-MS.

Chain of Akt (P31749 whole entry): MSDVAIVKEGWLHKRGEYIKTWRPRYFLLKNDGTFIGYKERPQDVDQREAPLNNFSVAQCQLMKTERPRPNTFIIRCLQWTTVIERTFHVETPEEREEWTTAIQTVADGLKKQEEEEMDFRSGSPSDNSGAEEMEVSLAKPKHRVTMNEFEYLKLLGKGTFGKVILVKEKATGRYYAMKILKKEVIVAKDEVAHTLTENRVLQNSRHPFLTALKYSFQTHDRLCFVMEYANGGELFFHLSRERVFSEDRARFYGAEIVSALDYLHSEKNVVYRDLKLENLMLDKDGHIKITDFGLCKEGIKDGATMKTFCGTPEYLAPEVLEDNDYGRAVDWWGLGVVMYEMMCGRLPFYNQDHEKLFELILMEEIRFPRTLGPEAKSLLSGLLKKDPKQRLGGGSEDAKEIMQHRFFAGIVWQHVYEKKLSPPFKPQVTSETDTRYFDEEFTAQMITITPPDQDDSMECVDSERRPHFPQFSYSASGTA

Row | phosphorylation of the peptide substrate by LKB1 (LKB1) | Substance | phosphorylation of the peptide substrate by Akt (conversion to phosphorylated product) (Akt)
1 | partially phosphorylated | WHLQTWCGYGGKbiotinGG (WHLQTWCGYGGK(Biotin)GG) [candidate LKB1 biosensor peptide substrate with C-terminal -GGKbiotinGG tag] | 
2 |  | RRRRRSVDSHGGKbiotinGG (RRRRRSVDSHGGK(Biotin)GG) [artificial Akt substrate peptide biosensor with C-terminal -GGKbiotinGG tag] | Nearly complete conversion to phosphorylated product

Reference: patent US10745439B2, “Kinase substrates and methods of use thereof” (REGENTS OF THE UNIVERSITY OF MINNESOTA, priority 2017, dated 2020)
